The values below come from patent US20240409645A1 (DUALYX, published 2024).

T1: human IL-2 receptor (IL-2Rα/IL-2Rβ/γc) (human, UniProt P01589 22-272; P14784 27-551; P31785 23-369)
T1 sequence 1: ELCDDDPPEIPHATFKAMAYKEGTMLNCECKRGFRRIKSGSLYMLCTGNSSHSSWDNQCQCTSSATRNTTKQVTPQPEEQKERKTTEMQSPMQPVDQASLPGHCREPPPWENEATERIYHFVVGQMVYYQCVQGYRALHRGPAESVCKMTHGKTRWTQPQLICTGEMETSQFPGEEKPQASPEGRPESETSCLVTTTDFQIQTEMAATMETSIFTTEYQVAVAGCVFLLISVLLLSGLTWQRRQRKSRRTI
T1 sequence 2: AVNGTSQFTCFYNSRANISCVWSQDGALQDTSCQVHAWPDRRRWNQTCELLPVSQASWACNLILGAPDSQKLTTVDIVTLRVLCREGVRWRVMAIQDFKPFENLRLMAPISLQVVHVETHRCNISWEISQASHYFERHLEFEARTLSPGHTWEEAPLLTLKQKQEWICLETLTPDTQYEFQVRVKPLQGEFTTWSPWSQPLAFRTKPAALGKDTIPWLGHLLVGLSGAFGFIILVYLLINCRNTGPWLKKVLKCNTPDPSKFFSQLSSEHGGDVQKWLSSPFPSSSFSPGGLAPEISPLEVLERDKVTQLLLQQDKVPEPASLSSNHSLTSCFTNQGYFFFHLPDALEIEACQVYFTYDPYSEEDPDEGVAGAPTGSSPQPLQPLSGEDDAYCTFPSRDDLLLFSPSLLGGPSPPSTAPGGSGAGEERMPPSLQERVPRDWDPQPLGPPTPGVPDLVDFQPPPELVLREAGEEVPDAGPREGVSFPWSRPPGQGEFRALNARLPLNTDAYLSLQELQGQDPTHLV
T1 sequence 3: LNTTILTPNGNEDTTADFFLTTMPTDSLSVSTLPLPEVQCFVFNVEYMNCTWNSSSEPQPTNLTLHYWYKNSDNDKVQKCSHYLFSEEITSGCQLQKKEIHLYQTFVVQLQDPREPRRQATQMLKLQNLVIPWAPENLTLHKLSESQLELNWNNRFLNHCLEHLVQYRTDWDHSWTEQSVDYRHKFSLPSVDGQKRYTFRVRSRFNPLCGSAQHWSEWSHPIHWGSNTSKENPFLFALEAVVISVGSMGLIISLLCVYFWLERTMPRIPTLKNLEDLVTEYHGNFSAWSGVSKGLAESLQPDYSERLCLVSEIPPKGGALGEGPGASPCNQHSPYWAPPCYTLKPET

B1: DC00040 (other)
chain 1: QVQLVESGGGLVQPGGSLRLSCATSGFTFRNNFMSWVRQAPGKGLEWVSTISYGGESTTYAESVKGRFTISRDNAKNTLYLQMNNLKPEDTAVYYCAKATSYDSIRSGSRGQGTQVTVSSDKTHTCPPCPAPEAAGGPSVFLFPPKPKDTLMISRTPEVTCVVVDVSHEDPEVKFNWYVDGVEVHNAKTKPREEQYNSTYRVVSVLTVLHQDWLNGKEYKCKVSNKALGAPIEKTISKAKGQPREPQVYTLPPSRDELTKNQVSLTCLVKGFYPSDIAVEWESNGQPENNYKTTPPVLDSDGSFLLYSKLTVDKSRWQQGNVFSCSVMHEALHNHYTQKSLSLSPGK
chain 2: EVQLVESGGGLVQTGGSLRLSCAASGGTFSRDAMAWFRQVPGKEREFVALISWSGATTNYADSVKGRFAISRDNGKNTVYLQMNRLKPADTAIYYCAADRRPMGSRSYFEPTEYDDWGQGTQVTVSSGGGGSGGGGSGGGGSQVQLVESGGGLVQAGGSLTLSCAAPGRTFGTDVVGWFRQAPGKEREFVASISRSGDGIYYDDSVKGRFTISRNNAWNTVNLQMNSLKVEDTAVYYCAAGDGWSTYDYWGQGTQVTVSSGGGGSGGGGSGGGGSDKTHTCPPCPAPEAAGGPSVFLFPPKPKDTLMISRTPEVTCVVVDVSHEDPEVKFNWYVDGVEVHNAKTKPREEQYNSTYRVVSVLTVLHQDWLNGKEYKCKVSNKALGAPIEKTISKAKGQPREPQVYTLPPSRDELTKNQVSLTCLVKGFYPSDIAVEWESNGQPENNYKTTPPVLDSDGSFFLYSRLTVDKSRWQQGNVFSCSVMHEALHNHYTQKSLSLSPGK
B2: DC00044 (other)
chain 1: B1 chain 1
chain 2: QVQLVESGGGLVQAGGSLTLSCAAPGRTFGTDVVGWFRQAPGKEREFVASISRSGDGIYYDDSVKGRFTISRNNAWNTVNLQMNSLKVEDTAVYYCAAGDGWSTYDYWGQGTQVTVSSGGGGSGGGGSGGGGSEVQLVESGGGLVQTGGSLRLSCAASGGTFSRDAMAWFRQVPGKEREFVALISWSGATTNYADSVKGRFAISRDNGKNTVYLQMNRLKPADTAIYYCAADRRPMGSRSYFEPTEYDDWGQGTQVTVSSGGGGSGGGGSGGGGSQVQLVESGGGLVQPGGSLRLSCATSGFTFRNNFMSWVRQAPGKGLEWVSTISYGGESTTYAESVKGRFTISRDNAKNTLYLQMNNLKPEDTAVYYCAKATSYDSIRSGSRGQGTQVTVSSDKTHTCPPCPAPEAAGGPSVFLFPPKPKDTLMISRTPEVTCVVVDVSHEDPEVKFNWYVDGVEVHNAKTKPREEQYNSTYRVVSVLTVLHQDWLNGKEYKCKVSNKALGAPIEKTISKAKGQPREPQVYTLPPSRDELTKNQVSLTCLVKGFYPSDIAVEWESNGQPENNYKTTPPVLDSDGSFFLYSRLTVDKSRWQQGNVFSCSVMHEALHNHYTQKSLSLSPGK
B3: DC00042 (other)
chain 1: B1 chain 1
chain 2: QVQLVESGGGLVQAGGSLTLSCAAPGRTFGTDVVGWFRQAPGKEREFVASISRSGDGIYYDDSVKGRFTISRNNAWNTVNLQMNSLKVEDTAVYYCAAGDGWSTYDYWGQGTQVTVSSGGGGSGGGGSGGGGSEVQLVESGGGLVQTGGSLRLSCAASGGTFSRDAMAWFRQVPGKEREFVALISWSGATTNYADSVKGRFAISRDNGKNTVYLQMNRLKPADTAIYYCAADRRPMGSRSYFEPTEYDDWGQGTQVTVSSGGGGSGGGGSGGGGSDKTHTCPPCPAPEAAGGPSVFLFPPKPKDTLMISRTPEVTCVVVDVSHEDPEVKFNWYVDGVEVHNAKTKPREEQYNSTYRVVSVLTVLHQDWLNGKEYKCKVSNKALGAPIEKTISKAKGQPREPQVYTLPPSRDELTKNQVSLTCLVKGFYPSDIAVEWESNGQPENNYKTTPPVLDSDGSFFLYSRLTVDKSRWQQGNVFSCSVMHEALHNHYTQKSLSLSPGK
B4: DC00045 (other)
chain 1: B1 chain 1
chain 2: QVQLVESGGGLVQAGGSLTLSCAAPGRTFGTDVVGWFRQAPGKEREFVASISRSGDGIYYDDSVKGRFTISRNNAWNTVNLQMNSLKVEDTAVYYCAAGDGWSTYDYWGQGTQVTVSSGGGGSGGGGSGGGGSQVQLVESGGGLVQPGGSLRLSCATSGFTFRNNFMSWVRQAPGKGLEWVSTISYGGESTTYAESVKGRFTISRDNAKNTLYLQMNNLKPEDTAVYYCAKATSYDSIRSGSRGQGTQVTVSSGGGGSGGGGSGGGGSEVQLVESGGGLVQTGGSLRLSCAASGGTFSRDAMAWFRQVPGKEREFVALISWSGATTNYADSVKGRFAISRDNGKNTVYLQMNRLKPADTAIYYCAADRRPMGSRSYFEPTEYDDWGQGTQVTVSSGGGGSGGGGSGGGGSDKTHTCPPCPAPEAAGGPSVFLFPPKPKDTLMISRTPEVTCVVVDVSHEDPEVKFNWYVDGVEVHNAKTKPREEQYNSTYRVVSVLTVLHQDWLNGKEYKCKVSNKALGAPIEKTISKAKGQPREPQVYTLPPSRDELTKNQVSLTCLVKGFYPSDIAVEWESNGQPENNYKTTPPVLDSDGSFFLYSRLTVDKSRWQQGNVFSCSVMHEALHNHYTQKSLSLSPGK
B5: DC00043 (other)
chain 1: B1 chain 1
chain 2: QVQLVESGGGLVQPGGSLRLSCATSGFTFRNNFMSWVRQAPGKGLEWVSTISYGGESTTYAESVKGRFTISRDNAKNTLYLQMNNLKPEDTAVYYCAKATSYDSIRSGSRGQGTQVTVSSGGGGSGGGGSGGGGSEVQLVESGGGLVQTGGSLRLSCAASGGTFSRDAMAWFRQVPGKEREFVALISWSGATTNYADSVKGRFAISRDNGKNTVYLQMNRLKPADTAIYYCAADRRPMGSRSYFEPTEYDDWGQGTQVTVSSGGGGSGGGGSGGGGSQVQLVESGGGLVQAGGSLTLSCAAPGRTFGTDVVGWFRQAPGKEREFVASISRSGDGIYYDDSVKGRFTISRNNAWNTVNLQMNSLKVEDTAVYYCAAGDGWSTYDYWGQGTQVTVSSGGGGSGGGGSGGGGSDKTHTCPPCPAPEAAGGPSVFLFPPKPKDTLMISRTPEVTCVVVDVSHEDPEVKFNWYVDGVEVHNAKTKPREEQYNSTYRVVSVLTVLHQDWLNGKEYKCKVSNKALGAPIEKTISKAKGQPREPQVYTLPPSRDELTKNQVSLTCLVKGFYPSDIAVEWESNGQPENNYKTTPPVLDSDGSFFLYSRLTVDKSRWQQGNVFSCSVMHEALHNHYTQKSLSLSPGK
B6: DC00041 (other)
chain 1: B1 chain 1
chain 2: QVQLVESGGGLVQPGGSLRLSCATSGFTFRNNFMSWVRQAPGKGLEWVSTISYGGESTTYAESVKGRFTISRDNAKNTLYLQMNNLKPEDTAVYYCAKATSYDSIRSGSRGQGTQVTVSSGGGGSGGGGSGGGGSQVQLVESGGGLVQAGGSLTLSCAAPGRTFGTDVVGWFRQAPGKEREFVASISRSGDGIYYDDSVKGRFTISRNNAWNTVNLQMNSLKVEDTAVYYCAAGDGWSTYDYWGQGTQVTVSSGGGGSGGGGSGGGGSEVQLVESGGGLVQTGGSLRLSCAASGGTFSRDAMAWFRQVPGKEREFVALISWSGATTNYADSVKGRFAISRDNGKNTVYLQMNRLKPADTAIYYCAADRRPMGSRSYFEPTEYDDWGQGTQVTVSSGGGGSGGGGSGGGGSDKTHTCPPCPAPEAAGGPSVFLFPPKPKDTLMISRTPEVTCVVVDVSHEDPEVKFNWYVDGVEVHNAKTKPREEQYNSTYRVVSVLTVLHQDWLNGKEYKCKVSNKALGAPIEKTISKAKGQPREPQVYTLPPSRDELTKNQVSLTCLVKGFYPSDIAVEWESNGQPENNYKTTPPVLDSDGSFFLYSRLTVDKSRWQQGNVFSCSVMHEALHNHYTQKSLSLSPGK

For the assay, the target named is T1, human IL-2 receptor (IL-2Rα/IL-2Rβ/γc). Description: cell-based or functional assay.
As to B1, the “EC50 (nM) pSTAT5, NK, human PBMCs” value stood at 0.701 nM; the “EC50 (nM) pSTAT5, Treg, human PBMCs” value turned out to be 0.0158 nM; the “Fold Max signal (% pSTAT5+) Treg/NK” value came to 10 fold; the “Max signal (% pSTAT5+), NK” value is 4 % pSTAT5+. Moreover, the “Max signal (% pSTAT5+), Treg” value was determined as 43 % pSTAT5+ and the “fold EC50 NK/Treg” value is 44 fold.
On to B2, for which the “EC50 (nM) pSTAT5, NK, human PBMCs” value stood at 0.442 nM; the “EC50 (nM) pSTAT5, Treg, human PBMCs” value was < 0.1 pM; the “Fold Max signal (% pSTAT5+) Treg/NK” value came out at 5 fold; the “Max signal (% pSTAT5+), NK” value came out at 20 % pSTAT5+. The “Max signal (% pSTAT5+), Treg” value stood at 96 % pSTAT5+ and the “fold EC50 NK/Treg” value was > 4420 fold.
On to B3, for which the “EC50 (nM) pSTAT5, NK, human PBMCs” value is 0.763 nM; the “EC50 (nM) pSTAT5, Treg, human PBMCs” value turned out to be 0.106 pM; the “Fold Max signal (% pSTAT5+) Treg/NK” value stood at 5 fold; the “Max signal (% pSTAT5+), NK” value turned out to be 21 % pSTAT5+. The “Max signal (% pSTAT5+), Treg” value was found to be 94 % pSTAT5+ and the “fold EC50 NK/Treg” value stood at 7210 fold.
Take B4: the “EC50 (nM) pSTAT5, NK, human PBMCs” value turned out to be 0.0573 nM; the “EC50 (nM) pSTAT5, Treg, human PBMCs” value turned out to be 0.151 pM; the “Fold Max signal (% pSTAT5+) Treg/NK” value stood at 12 fold; the “Max signal (% pSTAT5+), NK” value turned out to be 7 % pSTAT5+. The “Max signal (% pSTAT5+), Treg” value stood at 88 % pSTAT5+ and the “fold EC50 NK/Treg” value was found to be 379 fold.
On to B5, for which the “EC50 (nM) pSTAT5, NK, human PBMCs” value was found to be 0.0425 nM; the “EC50 (nM) pSTAT5, Treg, human PBMCs” value worked out at 0.529 pM; the “Fold Max signal (% pSTAT5+) Treg/NK” value was determined as 16 fold; the “Max signal (% pSTAT5+), NK” value was determined as 3 % pSTAT5+. The “Max signal (% pSTAT5+), Treg” value is 54 % pSTAT5+ and the “fold EC50 NK/Treg” value stood at 80 fold.
Consider B6, for which the “EC50 (nM) pSTAT5, NK, human PBMCs” value was found to be 0.15 nM; the “EC50 (nM) pSTAT5, Treg, human PBMCs” value was < 0.1 pM; the “Fold Max signal (% pSTAT5+) Treg/NK” value is 5 fold; the “Max signal (% pSTAT5+), NK” value came to 17 % pSTAT5+. The “Max signal (% pSTAT5+), Treg” value was found to be 94 % pSTAT5+ and the “fold EC50 NK/Treg” value is > 1500 fold.
